Entries after “also recorded” stand apart in the source; their conditions may differ.
Columns and labels:
nepetalactol [1] = assay: In vitro characterization of NOR candidates: conversion of nepetalactol to nepetalactone in clarified E. coli cell lysate (GC-MS); format: biochemical, Escherichia coli; settings: NAD+ or NADP+, 30° C., 2 hours
Description: The plasmids were individually transformed into chemically competent BL21 (DE3) cells. pUC19 was also transformed into BL21 (DE3) to produce a strain that could serve as a negative control. Transformants were selected and grown overnight with shaking in LB medium containing kanamycin. Glycerol stocks were prepared by mixing overnight culture with 50% glycerol in a 1:1 ratio. Glycerol stocks were frozen at −80° C.
BL21 (DE3) strains were streaked out on LB plates containing kanamycin from glycerol stock and grown overnight at 37° C. A single colony was inoculated into 4 mL of LB medium containing kanamycin in 15 mL disposable culture tubes and incubated overnight at 30° C. with shaking at 250 rpm. 500 μL of the overnight culture was subcultured into 50 mL of LB medium containing kanamycin in a 250 mL baffled flask. The culture was grown at 37° C. and the optical density at 600 nm (OD600) was monitored. When OD600 reached between 0.6-1, the cultures were cooled on ice for 15 minutes. The cultures were then induced with 100 μM of isopropyl β-D-1-thiogalactopyranoside and incubated at 15° C. with shaking at 250 rpm for roughly 20 hours. Cultures were pelleted by centrifugation in 50 mL centrifuge tubes. The supernatant was decanted and the pellets were frozen at −20° C. for later processing.
Pellets were thawed on ice and resuspended with 3 mL of cold lysis buffer: 50 mM sodium phosphate, pH=7.4, 100 mM sodium chloride. All remaining steps were performed either on ice or at 4° C. The cell mixture was transferred to a 15 mL centrifuge tube and disrupted with three rounds of sonication using the Branson Sonitier 450 with a double-level microtip at 70% amplitude. A single round of sonication consisted of 6 cycles of 10 seconds with the sonicator on, and 10 seconds off Between each round, the cell mixture was allowed to sit on ice for a minute to cool. The lysed cell mixture was transferred to 1.7 mL centrifuge tubes and centrifuged at maximum speed in a microcentrifuge for 20 minutes. The supernatant (clarified cell lysate) was collected in a separate tube and used for in vitro characterization.
The in vitro reactions were setup as follows: 2 μL of 100 mM NAD+ or NADP+ and 10 μL of 100 uM nepetalactol was added to 188 μL of the clarified cell lysate. The reactions were incubated at 30° C. shaking at 200 rpm for 2 hours. As a positive control, 2 μL of 100 mM NAD+, 2 μL of 100 mM NADP+ and 10 μL of 100 μM nepetalactone was added to 186 μL of clarified lysate from a strain harboring pUC 19 and incubated for 1 hr. The reactions were extracted with one volume of ethyl acetate. The organic layer was withdrawn and analyzed with gas chromatography coupled to mass spectrometry (GC-MS). Authentic standards were run to confirm identities of analytes.

nepetalactol [2] = assay: Production of nepetalactone from fed nepetalactol in Saccharomyces cerevisiae strains expressing NOR candidates from pESC-URA; format: cell-based; settings: 100 mg/L nepetalactol, 2% galactose, 24 hours
Description: The plasmids were individually transformed into chemically competent Saccharomyces cerevisiae cells as described in EXAMPLE 2. Transformants were selected on SD-URA agar plates. Three to four replicates were picked into SD-URA liquid medium and cultured at 30° C. for one to two days with shaking at 1000 rpm. Cultures were glycerol stocked at a final concentration of 16.6% glycerol and stored at −80° C. until later use.
10 μL of the glycerol stocked strains was inoculated into 300 μL of minimal media lacking uracil, and containing 4% glucose in 96-well plates to produce seed cultures. The plates were incubated at 30° C. at 1000 rpm for 1-2 days. 10 μL of the seed cultures was then inoculated into 300 μL of minimal media lacking uracil, and containing 2% galactose and 100 mg/L of nepetalactol. 30 μL of methyl oleate was next added to the wells. […]
Cell density was determined using a spectrophotometer by measuring the absorbance of each well at 600 nm. […] The plates were shaken for 25 sat 750 rpm immediately before being measured on a Tecan M1 000 spectrophotometer. […] The plates were centrifuged and the ethyl acetate layer was collected and analyzed by liquid chromatography coupled to mass spectrometry (LC-MS). Target analytes were quantified against authentic standards.

Molecule | conversion (oxidation) of nepetalactol to nepetalactone (nepetalactol [1]) | conversion (oxidation) of nepetalactol to nepetalactone (nepetalactol [1]; listed as NcatNORI5) | nepetalactone produced (nepetalactol [2]) [mg/L]
NcatNOR15: candidate nepetalactol oxidoreductase (NOR) from Nepeta cataria, protein SEQ ID NO: 561 (protein, listed as Nepeta cataria) MAKTPETEHPVKAFGYAATDNSGTFSPFKFSRRATGERDVQFKVLYCGVCHSDLHMVKNEWGVTHYPIVPGHEIVGVATEVGSKVEKVKVGDKVGVGVIVGSCRQCDQCSNDLENYCSKQILTYGAPYLDGTITRGGYSDIMVADEHFIIRWPENFPLDAGAPLLCAGITTYSPLRYFGLDKPGLRVGVNGLGGLGHVAVKFAKAFGTKVTVISSSLRKKKEAVEKLGVDEFLVSTDPEQMQAAIGTLDGIIDTVSAEHSVVSLLSLLKPHGRLIVVGAPEKPHQLPAFPLITGRKSISGSAIGGMKETQEMIDFAAKHNILPDVEVIPIDYINTAMERLLKSDVKYRFVIDVEKSLKA | can convert nepetalactol to nepetalactone | can oxidize nepetalactol to nepetalactone | –
NcatNOR21: candidate nepetalactol oxidoreductase (NOR) from Nepeta cataria, protein SEQ ID NO: 566 (protein, listed as Nepeta cataria) MAKSVNAVGWAARDTSGLLSPLKFARPAAGDRDVQFKVLYCGICHSDLHSIKNEWGNTQYPIVPGHEIVGVVTAVGPKATKFKAGDKVGVGCLVNSCRHCDQCAADLENYCPQLVQTYNSVLADGSVTYGGYSDVMTADEDFVIRWPENFPMDKGAPLLCAGVTTYSPLRYYGLDKPGLHIGVVGLGGLGHVAVKFAKAFGMKVTVISTSAGKKKEAIETLGADAFLISRDASEMQAAAGTLDGMIDTVSAQHPLPPLLSLLKPHGKLILVGAPEKPFELPAFPLLMGRKTVAGSVIGGLKETQEMIDFAAKHNLLPEVEMIPMDYVNTAMERLAKADVKYRFVIDVGNTLTKAD | can convert nepetalactol to nepetalactone; also recorded: can oxidize nepetalactol to nepetalactone | – | –
NcatNOR34: candidate nepetalactol oxidoreductase (NOR) from Nepeta cataria, protein SEQ ID NO: 578 (protein, listed as Nepeta cataria) MAFCRSSLLLRKALGGSRRAAAAATCSSAYACGWQSERGRWYSGGEGTTISAPGYHVNTAPSHMTGAVFWDKDKPITYEEFEMPRPKANEVLIKTKACGACHSDLHVIKGDLKFPCPCILGHEITGEVVEHGPLTETKYIERYPVGSKVIGAFIMPCGSCFYCSRGEDDLCEPYFAYNRAKGTLYDGQTRLFLRGSGKPVHMWSMSGLAEYCVTPVNGLGALPDTLPYAESSVLGCAVFTAYGAIAHAAEVKPGNSVAVIGIGGVGSSCLQIAKAFGASEIIAVDVEDGKLETAKTFGATHIINSRKEDAIAKIKELTDGRGVDIAVEAIGGPKTFAQCVGSVRAGGKAVMIGLSPTGGKGEVEITQLVRRKVKVIGSYGGRAMTDLPKLVELAEQGTFNLEAAVTRRYKFEEVAQAYQDLQNKTIVGRGVIEIM | can convert nepetalactol to nepetalactone; also recorded: can oxidize nepetalactol to nepetalactone | – | –
GAR_NOR15: NOR candidate (SEQ ID NO: 1393) expressed in Saccharomyces cerevisiae from pESC-URA (protein, Nepeta cataria or Nepeta mussinii) MADKEGEVVCVTGGSGFIGSWLVSLLLRRGYSVRATVKNLGDERETKHLEAIEGADSRLSLFQIDLLDYDSVATAVGDAAGVFHLASPCTIDQVNDPQRELLDPAIKGTLNVLKAAKNLGVRRVVVTSSISAMIASSNSLAETGEDCWIDEDYCRQNGLWYPVSKALAEKAAWKLAEENGLDIVVVNPGMVVGPILPPALNSSMQLMLHVLQGKDFFEGFFMGLVHVKDVALAQILLYENTSASGRHLCVESLSRYDDFAKQMEKLYPEYKLPRFSNNAQHGSLKSDAALKKLRDLGIEFAPLEQIVKDSIESLRSKGYIS | – | – | 93

— patent US20220356497A1, “COMPOSITIONS AND METHODS FOR SYNTHESIS OF TERPENOIDS” (Zymergen Inc., priority 2019, published 2022)
